From paper PMC8391968

Target: transcriptional enhancer associated domain (TEAD) transcription factor (human (endogenous in A375)) (UniProt P28347)
Chain of UniProt P28347 (P28347 whole entry, the tested form may be a part): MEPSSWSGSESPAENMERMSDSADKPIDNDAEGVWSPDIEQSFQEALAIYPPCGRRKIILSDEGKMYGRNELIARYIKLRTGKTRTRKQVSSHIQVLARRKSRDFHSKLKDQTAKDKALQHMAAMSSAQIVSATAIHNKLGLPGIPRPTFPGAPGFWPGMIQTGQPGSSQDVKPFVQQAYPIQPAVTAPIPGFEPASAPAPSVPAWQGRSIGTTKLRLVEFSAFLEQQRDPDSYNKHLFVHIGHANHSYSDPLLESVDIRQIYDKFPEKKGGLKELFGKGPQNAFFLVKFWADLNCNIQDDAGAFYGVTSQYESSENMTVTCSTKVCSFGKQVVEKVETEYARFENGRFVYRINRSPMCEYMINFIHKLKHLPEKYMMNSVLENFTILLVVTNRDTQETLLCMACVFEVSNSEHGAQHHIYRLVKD

“yes-associated protein (YAP) (from UniProt P46937 1-504) (natural protein)” gave a TEAD luciferase reporter (8xGTIIC) in A375 TEAD luciferase-stable melanoma cells, decrease of luciferase expression with the small molecule BY03 at 10 nM to 10 μM of 75% and a TEAD-dependent luciferase reporter (8xGTIIC) in HEK293T cells with ectopic expression of YAP-S127A, decrease of luciferase expression with the small molecule BY03 at 20 μM of 68%.
